Laboratory results from patent US20090123452A1 (TORREY PINES INSTITUTE FOR MOLECULAR STUDIES AND CATALYST …, published 2009).

Key:
[1] = target: T1, u-PA/IVa (purified two-chain enzyme) (human, UniProt P00749 21-431); test: inhibition kinetics, 2nd order rate constant
T1 construct: F30V/K82E/V159A/E80G/I89V/K187E (chymotrypsin numbering); Full-length u-PA from COS-1 cells, made two-chain with plasmin-sepharose; also called u-PA/IVa (30, 80, 82, 89, 159, 187)
Description: (§1) The indirect chromogenic assay as described in Part D above was used to determine the residual enzyme activity remaining as a function of time.
(§2) The rate constants for inhibition of wild-type or mutant u-PA by PAI-1 were under pseudo-first order conditions for an excess of PAI-1 over u-PA as described previously (see e.g., Holmes et al. (1987) Biochemistry, 26: 5133-5140; Beatty et al. (1980) J. Biol. Chem., 255:3931-3934; Madison et al. (1990) PNAS, 87: 3530-3533; Madison et al. (1993) Methods Enzymol., 223:249-271). […] Following incubation, the mixtures were diluted and the residual enzymatic activity was determined in a standard chromogenic assay as set forth in D above. Data were analyzed by plotting In (residual activity/initial activity) versus time and determining the slope of the resulting straight line. […] rate constants were then derived by dividing the slope by the concentration of the inhibitor in the reaction.
(§3) Following preincubation, the mixtures were quenched with an excess of neutralizing anti-PAI antibodies and residual enzymatic activity was measured in the indirect chromogenic assay. The indirect, chromogenic assays were compared with control reactions containing no PAI-1 or to which PAI-1 was added after preincubation and addition of anti-PAI-1 antibody, plasminogen and Spectrozyme PL to the reaction mixture.

[2] = target: T2, u-PA/IIIa (purified two-chain enzyme) (human, UniProt P00749 21-431); test: inhibition kinetics, 2nd order rate constant
T2 construct: F30V/K82E/V159A (chymotrypsin numbering); Full-length u-PA from COS-1 cells, made two-chain with plasmin-sepharose; also called u-PA/IIIa (30, 82, 159)
Description: as §1, §2, §3

[3] = target: T3, u-PA/IVb (purified two-chain enzyme) (human, UniProt P00749 21-431); test: inhibition kinetics, 2nd order rate constant
T3 construct: F30V/K82E/V159A/E80G/E84K/I89V/K187E (chymotrypsin numbering); Full-length u-PA from COS-1 cells, made two-chain with plasmin-sepharose; also called u-PA/IVb (30, 80, 82, 84, 89, 159, 187)
Description: as §1, §2, §3

[4] = target: T4, u-PA/IIIb (purified two-chain enzyme) (human, UniProt P00749 21-431); test: inhibition kinetics, 2nd order rate constant
T4 construct: F30V/K82E/T39A/V159A (chymotrypsin numbering); Full-length u-PA from COS-1 cells, made two-chain with plasmin-sepharose; also called u-PA/IIIb (30, 39, 82, 159)
Description: as §1, §2, §3

[5] = target: T5, u-PA/IIb (purified two-chain enzyme) (human, UniProt P00749 21-431); test: inhibition kinetics, 2nd order rate constant
T5 construct: F30V/K82E (chymotrypsin numbering); Full-length u-PA from COS-1 cells, made two-chain with plasmin-sepharose; also called u-PA/IIb (30, 82)
Description: as §1, §2, §3

[6] = target: T6, u-PA/Ic (purified two-chain enzyme) (human, UniProt P00749 21-431); test: inhibition kinetics, 2nd order rate constant
T6 construct: F30V (chymotrypsin numbering); Full-length u-PA from COS-1 cells, made two-chain with plasmin-sepharose; also called u-PA/Ic (30)
Description: as §1, §2, §3

u-PA/Ia (phage) = u-PA/Ia (phage) (human, UniProt P00749 179-431); test: phage display selection: stable complex with His-tagged PAI-1/69 bait captured on Cu-sepharose; increased sensitivity against PAI-1/69
Procedure: (§4) In brief, 5 μl (˜2×10¹² to ˜1×10¹³) u-PA phage, containing an equal representation of u-PA phage from all three u-PA phage libraries (0.2, 0.5 and 0.9% mutagenesis frequency), was mixed with 5 μl bait substrate (from 0.1 to 1.0 μM PAI-1/RRAR or PAI-1/69) and 10 μl 10× indirect buffer pH 7.4 (0.5 M Tris, 1.0 M NaCl, 10 mM EDTA, 0.1% Tween 80) in a total volume of 100 μl (i.e. reaction contained 80 μl H₂O).
(§5) The u-PA phage-PAI-1 inhibitor complexes were captured using CuSO₄ activated sepharose. Pre-activation of the chelating sepharose (200 μl; Pharmacia) was accomplished by treatment with CuSO₄ (100 mM). The CuSO₄ activated sepharose was blocked with 0.5% BSA in PBS buffer for 1 hour at room temperature. 100 μl of BSA blocked sepharose beads was added to 100 μl of the above panning mixture reaction in the presence of 800 μl of binding buffer (0.5 M NaCl, 20 mM Tris, 20 mM immidozole, pH7.4) to capture the His-tagged PAI-1 inhibitor-u-PA phage complexes. The incubation was continued for another 1 hour at room temperature. Next, the panning mixture was centrifuged for 1 min at 2000 rpm and the sepharose beads containing bound u-PA phage-PAI-1 inhibitor complexes were washed with 1 ml of binding buffer to remove unbound phages. The washing step was repeated 5-10 times and the beads containing bound complexes were transferred to new tubes after each wash to avoid any potential “carry over” of non-specific phages.

u-PA/IIIb (phage) = u-PA/IIIb (phage) (human, UniProt P00749 179-431); test: as above
Procedure: as §4, §5

u-PA/IIIc (phage) = u-PA/IIIc (phage) (human, UniProt P00749 179-431); test: as above
Procedure: as §4, §5

u-PA/IIb (phage) = u-PA/IIb (phage) (human, UniProt P00749 179-431); test: as above
Procedure: as §4, §5

u-PA/IIa (phage) = u-PA/IIa (phage) (human, UniProt P00749 179-431); test: as above
Procedure: as §4, §5

u-PA/IVb (phage) = u-PA/IVb (phage) (human, UniProt P00749 179-431); test: as above
Procedure: as §4, §5

u-PA/IIIa (phage) = u-PA/IIIa (phage) (human, UniProt P00749 179-431); test: as above
Procedure: as §4, §5

u-PA/Ib (phage) = u-PA/Ib (phage) (human, UniProt P00749 179-431); test: as above
Procedure: as §4, §5

u-PA/IVa (phage) = u-PA/IVa (phage) (human, UniProt P00749 179-431); test: as above
Procedure: as §4, §5

u-PA/Ic (phage) = u-PA/Ic (phage) (human, UniProt P00749 179-431); test: as above
Procedure: as §4, §5

u-PA/IIc (phage) = u-PA/IIc (phage) (human, UniProt P00749 179-431); test: as above
Procedure: as §4, §5

u-PA/IIId (phage) = u-PA/IIId (phage) (human, UniProt P00749 179-431); test: as above
Procedure: as §4, §5

u-PA/Id (phage) = u-PA/Id (phage) (human, UniProt P00749 179-431); test: as above
Procedure: as §4, §5

Measured: binding result

B1: mutant PAI-1/69 inhibitor (other)
chain: VHHPPSYVAHLASDFGVRVFQQVAQASKDRNVVFSPYGVASVLAMLQLTTGGETQQQIQAAMGFKIDDKGMAPALRHLYKELMGPWNKDEISTTDAIFVQRDLKLVQGFMPHFFRLFRSTVKQVDFSEVERARFIINDWVKTHTKGMISNLLGKGAVDQLTRLVLVNALYFNGQWKTPFPDSSTHRRLFHKSDGSTVSVPMMAQTNKFNYTEFTTPDGHYYDILELPYHGDTLSMFIAAPYEKEVPLSALTNILSAQLISHWKGNMTRLPRLLVLPKFSLETEVDLRKPLENLGMTDMFRQFQADFTSLSDQEPLHVAQALQKVKIEVNESGTVASSSTAVIPFGRSAPEEIIMDRPFLFVVRHNPTGTVLFMGQVMEP
notes: not shown: N-terminal poly histidine residues from the pPAIST7HS vector
binds: [1] | [2] | [3] | [4] | [5] | [6] | u-PA/Ia (phage) | u-PA/IIIb (phage) | u-PA/IIIc (phage) | u-PA/IIb (phage) | u-PA/IIa (phage) | u-PA/IVb (phage) | u-PA/IIIa (phage) | u-PA/Ib (phage) | u-PA/IVa (phage) | u-PA/Ic (phage) | u-PA/IIc (phage) | u-PA/IIId (phage) | u-PA/Id (phage)
